For one experiment, the target named is human neonatal Fc-receptor (FcRn) (human) (UniProt P55899). As to the kind of experiment: FcRn affinity chromatography.
human neonatal Fc-receptor (FcRn) (human), sequence (P55899 24-297 limits assumed, chain 1 of 2): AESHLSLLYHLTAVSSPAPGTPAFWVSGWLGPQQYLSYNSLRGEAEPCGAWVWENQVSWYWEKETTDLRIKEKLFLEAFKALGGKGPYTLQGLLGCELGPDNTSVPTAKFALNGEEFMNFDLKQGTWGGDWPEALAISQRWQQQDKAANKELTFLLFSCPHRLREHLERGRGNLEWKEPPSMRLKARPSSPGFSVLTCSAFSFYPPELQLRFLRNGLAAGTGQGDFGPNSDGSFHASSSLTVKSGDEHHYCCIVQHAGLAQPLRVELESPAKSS
human neonatal Fc-receptor (FcRn) (human), sequence (P61769 21-119 limits assumed, chain 2 of 2, further chain): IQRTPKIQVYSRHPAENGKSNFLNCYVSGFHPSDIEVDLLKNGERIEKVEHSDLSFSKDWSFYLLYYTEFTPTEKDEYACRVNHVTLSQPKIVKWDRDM
Substance “IgG1 Fc-region molecule with L234A/L235A/P329G and Y436A (symmetric)” yielded a FcRn-affinity column retention time of 41.3 min.

The target is the same in another experiment. As to the kind of experiment: FcRn affinity chromatography, anti-HER2 antibody.
anti-HER2 antibody, symmetric E258H yielded a retention time on FcRn affinity column of 45.6 min.

As to anti-HER2 antibody, symmetric E430H, the retention time on FcRn affinity column came to 46.4 min.

Substance anti-HER2 antibody, symmetric K288E had a retention time on FcRn affinity column of 45.2 min.

The substance anti-HER2 antibody, symmetric K290H showed a retention time on FcRn affinity column of 46.2 min.

Turning to anti-HER2 antibody, symmetric K317H, the retention time on FcRn affinity column stood at 46.3 min.

With anti-HER2 antibody, symmetric L309H, the retention time on FcRn affinity column stood at 45.5 min.

The substance anti-HER2 antibody, symmetric N434H displayed a retention time on FcRn affinity column of 52 min.

Substance anti-HER2 antibody, symmetric Q311H had a retention time on FcRn affinity column of 46.3 min.

As to anti-HER2 antibody, symmetric R255D, the retention time on FcRn affinity column was found to be 41.4 min.

On to anti-HER2 antibody, symmetric T256H, for which the retention time on FcRn affinity column came to 46 min.

Regarding anti-HER2 antibody, wild-type, the retention time on FcRn affinity column amounted to 46.3 min.

For the next experiment the target is unchanged. Description: FcRn affinity chromatography, bispecific KiH antibody.
As to “bispecific antibody (knobs-into-holes), one chain with H310A”, the retention time on FcRn affinity column is 48.4 min.

“bispecific antibody (knobs-into-holes), one chain with H310A/H433A/Y436A”: the retention time on FcRn affinity column was 46.7 min.

The substance “bispecific antibody (knobs-into-holes), one chain with H435A” registered a retention time on FcRn affinity column of 48.8 min.

For “bispecific antibody (knobs-into-holes), one chain with I253A”, the retention time on FcRn affinity column was 48.8 min.

As to “bispecific antibody (knobs-into-holes), one chain with L251D/L314D/L432D”, the retention time on FcRn affinity column turned out to be 46.3 min.

Consider “bispecific antibody (knobs-into-holes), one chain with M252Y/S254T/T256E”, for which the retention time on FcRn affinity column is 56.2 min.

The next experiment has the same target. Description: FcRn affinity chromatography of a knobs-into-holes bispecific antibody.
“bispecific antibody (knobs-into-holes), first chain I253A/H310A/H435A, second chain H310A”: the RT (Min) on the FcRn affinity column was determined as 0 min.

In turn, “bispecific antibody (knobs-into-holes), first chain I253A/H310A/H435A, second chain H435A” came in with an RT (Min) on the FcRn affinity column of 0 min.

On to “bispecific antibody (knobs-into-holes), first chain I253A/H310A/H435A, second chain I253A/H310A/H435A”, for which the RT (Min) on the FcRn affinity column is 0 min.

Consider “bispecific antibody (knobs-into-holes), one chain with H310A”, for which the RT (Min) on the FcRn affinity column was 48.4 min.

“bispecific antibody (knobs-into-holes), one chain with H435A” returned an RT (Min) on the FcRn affinity column of 48.8 min.

“bispecific antibody (knobs-into-holes), one chain with I253A” registered an RT (Min) on the FcRn affinity column of 48.8 min.

Source of the values: patent publication US20240218060A1.
